The values below come from patent publication US20090269840A1 (UCB, published 2009).

The term Kd denotes the constant that tells how readily two partners part at equilibrium. The low end stands for a tighter complex, the high end for a looser complex.

Test [1] addresses T1, 7 Ig-domain human KDR fused to human Fc (human, UniProt P35968 20-764).
T1 construct: domain: 7 Ig-domain; also called human 7-domain KDR-Fc; KDR-Fc; not shown: human Fc
Nature of the test: BIAcore, KDR-Fc captured on anti-Fc chip, antibody passed over. The text has this:
(§1) 7 Ig-domain human KDR fused to human Fc was captured on a chip coated with anti-Fc, and the various fragments of the CDR grafted antibody g165 and the murine parent antibody VR165 were passed over permitting affinity determination. The table below summarises the results obtained. In this assay format, there is an advantage of divalency as shown by the lower off rates (Kd) of the divalent species. The affinity of the grafted DFM is very similar to the murine IgG, with the DFM-PEG showing a minor reduction of affinity.
On the technique in general: In SPR one partner is held on a chip, and binding of the other changes the refractive index at the surface.

The target of test [2] is T1, 7 Ig-domain human KDR fused to human Fc. Nature of the test: radioimmunoassay: 7 Ig-domain KDR-human Fc captured by polyclonal anti-Fc on a microtitre plate, fragment added, then 125-I labeled VEGF-165 as the blocked ligand. The procedure: The ability of the fragments to block VEGF binding to KDR was measured in a radioimmunoassay.
Test [3] has the same target. Nature of the test: BIAcore, KDR-Fc captured on anti-Fc chip, fragment passed over.
Description: as §1

T1 sequence (P35968 20-764 limits assumed): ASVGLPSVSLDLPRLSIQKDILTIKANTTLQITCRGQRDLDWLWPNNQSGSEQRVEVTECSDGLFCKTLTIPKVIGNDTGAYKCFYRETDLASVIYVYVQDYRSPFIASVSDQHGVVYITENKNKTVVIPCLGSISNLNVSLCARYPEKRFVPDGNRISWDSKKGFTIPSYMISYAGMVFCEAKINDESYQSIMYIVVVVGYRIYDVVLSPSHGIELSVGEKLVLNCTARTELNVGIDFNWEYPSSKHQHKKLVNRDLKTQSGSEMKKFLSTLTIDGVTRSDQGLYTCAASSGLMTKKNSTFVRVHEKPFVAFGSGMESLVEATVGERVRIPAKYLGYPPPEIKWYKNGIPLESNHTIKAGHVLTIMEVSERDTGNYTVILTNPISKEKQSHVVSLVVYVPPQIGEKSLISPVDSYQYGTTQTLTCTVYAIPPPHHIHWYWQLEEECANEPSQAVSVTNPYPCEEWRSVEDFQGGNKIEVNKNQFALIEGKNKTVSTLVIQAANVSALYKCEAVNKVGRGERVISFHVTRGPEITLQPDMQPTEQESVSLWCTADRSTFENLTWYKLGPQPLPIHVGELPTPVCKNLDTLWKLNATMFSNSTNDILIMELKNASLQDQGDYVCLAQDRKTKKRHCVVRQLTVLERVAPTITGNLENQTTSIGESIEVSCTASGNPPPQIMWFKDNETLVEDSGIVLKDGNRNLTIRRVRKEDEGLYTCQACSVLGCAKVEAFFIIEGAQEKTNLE

B1: mouse monoclonal antibody VR165 (antibody, mouse IgG2a, V domains shown)
VH: EVQLVESGGDLVKPGGSLKLSCAASGFTFSSYGMSWVRQTPDKRLQWVATITSGGSYTYYPDTVKGRFTISRDNAENTLYLQMSSLKSEDTAMYYCVRIGEDALDYWGQGTSVTVSS
VL: DIQMTQSPSSLSASLGERVSLTCRASQDIAGSLNWLRQEPDGTIKRLIYATSSLDSGVPKRFSGSRSGSDYSLTISSLESEDFVDYYCLQYGSFPPTFGGGSKLEIKR
notes: also called mIgG; murine IgG
Molecule B1 returned a Kd in test [1] of 30 pM.

B2: g165 DFM-PEG40 (PEGylated di-(modified Fab) of g165) (other)
light: DIQMTQSPSSLSASVGDRVTITCRASQDIAGSLNWLQQKPGKAIKRLIYATSSLDSGVPKRFSGSRSGSDYTLTISSLQPEDFATYYCLQYGSFPPTFGQGTKVEIKRTVAAPSVFIFPPSDEQLKSGTASVVCLLNNFYPREAKVQWKVDNALQSGNSQESVTEQDSKDSTYSLSSTLTLSKADYEKHKVYACEVTHQGLSSPVTKSFNRGEC
heavy: EVQLVESGGGLVQPGGSLRLSCAASGFTFSSYGMSWVRQAPGKGLEWVATITSGGSYTYYVDSVKGRFTISRDNAKNTLYLQMNSLRAEDTAVYYCVRIGEDALDYWGQGTLVTVSSASTKGPSVFPLAPSSKSTSGGTAALGCLVKDYFPEPVTVSWNSGALTSGVHTFPAVLQSSGLYSLSSVVTVPSSLGTQTYICNVNHKPSNTKVDKKVEPKSCDKTHTCAA
modifications: hinge cysteine linked to (mPEG)-lysyl bis-maleimide (PEG about 40 kDa)
notes: no limits stated
B2: the “IC50 (read off the curve)” value in test [2] is ~0.05 µg/mL. In addition, in test [3], the dissociation constant (Kd) stood at 41 pM.

B3: g165 DFM (di-(modified Fab) of the CDR-grafted antibody g165, naked) (other)
light: B2 light
heavy: B2 heavy
modifications: hinge cysteine cross-linked to the second Fab' (linker of the naked DFM not described)
notes: also called grafted DFM; naked DFM
With B3, the equilibrium dissociation constant (Kd) in test [3] came to 29 pM.

B4: g165 modified Fab (Fab') fragment, CDP791 (Fab, V domains shown)
VH: EVQLVESGGGLVQPGGSLRLSCAASGFTFSSYGMSWVRQAPGKGLEWVATITSGGSYTYYVDSVKGRFTISRDNAKNTLYLQMNSLRAEDTAVYYCVRIGEDALDYWGQGTLVTVSS
VL: DIQMTQSPSSLSASVGDRVTITCRASQDIAGSLNWLQQKPGKAIKRLIYATSSLDSGVPKRFSGSRSGSDYTLTISSLQPEDFATYYCLQYGSFPPTFGQGTKVEIKR
notes: g165 = gL3gH3; no limits stated; also called CDP791 Fab
Regarding B4, the “IC50 (read off the curve)” value in test [2] is ~0.2 µg/mL. The molecule also yielded a dissociation constant (Kd) in test [3] of 910 pM.

B5: g165 FAB-PEG40 (PEGylated modified Fab of g165) (Fab, V domains shown)
VH: B4 VH
VL: B4 VL
modifications: single cysteine of the truncated hinge linked to (mPEG)-lysyl maleimide (two mPEG of about 20,000 Da, about 40,000 Da in all)
notes: no limits stated
Turning to B5, binding in test [3] was characterised by a dissociation constant (Kd) of 1070 pM.
